Assay results taken from patent US20030017170A1 (BURNHAM INSTITUTE, published 2003).
Positions of bridges follow the written chain, without caps; N, C: chain ends. No end group written: not given here.

Experiments:
E-selectin:IgG chimera [1] = target: E-selectin:IgG chimera (UniProt P16581 22-301); experiment: competition ELISA: inhibition of sLe^x-PAA-biotin binding to coated E-selectin:IgG
E-selectin:IgG chimera [2] = target: E-selectin:IgG chimera (UniProt P16581); experiment: as above
Chain of E-selectin:IgG chimera (UniProt P16581) (P16581 22-301, change not shown): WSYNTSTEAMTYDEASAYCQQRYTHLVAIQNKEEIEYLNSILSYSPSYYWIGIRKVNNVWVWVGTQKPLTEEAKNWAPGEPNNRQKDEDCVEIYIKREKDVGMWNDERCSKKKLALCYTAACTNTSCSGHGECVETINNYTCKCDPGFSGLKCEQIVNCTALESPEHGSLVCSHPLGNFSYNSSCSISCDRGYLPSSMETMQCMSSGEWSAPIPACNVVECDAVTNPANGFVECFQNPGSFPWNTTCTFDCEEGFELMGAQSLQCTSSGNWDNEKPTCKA

Chain of E-selectin:IgG chimera (UniProt P16581 22-301) (P16581 22-301, change not shown): as above

Binder | IC50 (E-selectin:IgG chimera [1]) [µM] | IC50 (E-selectin:IgG chimera [2]) [µM]
CIELLQARC (disulfide 1-9 (inferred), Synthetic peptide cyclised by a disulfide bond; also called cyclic heptapeptide) [synthetic cyclic CIELLQARC (SEQ ID NO:13) peptide] | 100 | –
IELLQAR (also: eight copies on branched MAPS core) [IELLQAR (SEQ ID NO:7) multivalent (Fmoc eight branch) peptide] | – | 10
IELLQAR [synthetic linear IELLQAR (SEQ ID NO:7) peptide] | – | 200
